# In publication PMC4249841:
# Target: Hsp70-mCherry (human, cytoplasmic, heat-inducible hsp70 (hsp72) with a C-terminal mCherry tag) (human) (UniProt P0DMV8)
# Experiment: FRET or BRET; live U2OS cells co-expressing the GFP-tagged PGK (donor) and the mCherry-tagged partner (acceptor); donor/acceptor (D/A) fluorescence ratio per cell under steady illumination, temperature titration 20°C-45°C, fitted by a two-state model
# UniProt P0DMV8, sequence (P0DMV8 whole entry): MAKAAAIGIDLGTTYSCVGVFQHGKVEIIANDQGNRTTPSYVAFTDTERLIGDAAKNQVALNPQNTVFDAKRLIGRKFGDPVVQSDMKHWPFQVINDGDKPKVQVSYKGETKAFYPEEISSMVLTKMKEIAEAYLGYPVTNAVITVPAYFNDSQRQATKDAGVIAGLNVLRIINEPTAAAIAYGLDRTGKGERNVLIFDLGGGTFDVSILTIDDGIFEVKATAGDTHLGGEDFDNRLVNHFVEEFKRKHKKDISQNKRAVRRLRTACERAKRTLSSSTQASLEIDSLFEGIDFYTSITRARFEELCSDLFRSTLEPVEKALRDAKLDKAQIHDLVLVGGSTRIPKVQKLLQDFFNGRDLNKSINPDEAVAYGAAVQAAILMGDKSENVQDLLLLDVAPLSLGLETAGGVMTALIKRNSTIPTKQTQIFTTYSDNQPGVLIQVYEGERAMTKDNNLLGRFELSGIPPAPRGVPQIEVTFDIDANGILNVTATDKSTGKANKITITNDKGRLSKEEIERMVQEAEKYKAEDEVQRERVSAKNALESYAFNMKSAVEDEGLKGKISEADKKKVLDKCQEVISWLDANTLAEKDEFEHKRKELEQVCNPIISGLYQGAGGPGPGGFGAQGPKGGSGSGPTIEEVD
substance,measurement,value
"ltPGK-GFP (low melting temperature mutant of phosphoglycerate kinase, Y122W/W308F/W333F, with an N-terminal GFP tag) (enzyme)",temperature midpoint of binding,39 °C
same,temperature of binding onset,35 °C
